The labels stand for the following.
B1: hIL2Rb_VHH-8 (VHH)
VHH: QVQLQESGGGSVQVGGSLKLSCAASGYTYSSYYCMGWFRQAPGKEREGVAAIDSDGSTSYADSVKGRFTISQDDAKNTLYLQMNSLKPEDTAMYYCAASYEVVDCYPSGYGQDYWGKGTQVTVSS
notes: As a his-tagged phage clone periplasmic extract
B2: hIL-2Rg_VHH15 Mono-Fc VHH (Fc fusion, not shown: a dimerising Fc or GST)
chain: QVQLQESGGGLVQPGGSLRLSCAASGFTFSSAHMSWVRQAPGKGREWIASIYSGGGTFYADSVKGRFTISRDNAKNTLYLQLNSLKAEDTAMYYCATNRLHYYSDDDSLRGQGTQVTVSS
B3: hIL-2Rg_VHH22 Mono-Fc VHH (Fc fusion, not shown: a dimerising Fc or GST)
chain: QVQLQESGGGLVQPGGSLRLSCTASGFSFSSYPMTWARQAPGKGLEWVSTIASDGGSTAYAASVEGRFTISRDNAKSTLYLQLNSLKTEDTAMYYCTKGYGDGTPAPGQGTQVTVSS
B4: hIL-2Rg_VHH21 Mono-Fc VHH (Fc fusion, not shown: a dimerising Fc or GST)
chain: QVQLQESGGGSVQAGGSLRLSCVASGYTSCMGWFRQAPGKEREAVATIYTRGRSIYYADSVKGRFTISQDNAKNTLYLQMNSLKPEDIAMYSCAAGGYSWSAGCEFNYWGQGTQVTVSS
B5: hIL-2Rg_VHH20 Mono-Fc VHH (Fc fusion, not shown: a dimerising Fc or GST)
chain: QVQLQESGGGSVQAGGSLRLSCTASGFTFDDSDMGWYRQAPGNECELVSTISSDGSTYYADSVKGRFTISQDNAKNTVYLQMNSLKPEDTAVYYCAAEPRGYYSNYGGRRECNYWGQGTQVTVSS
B6: hIL-2Rg_VHH8 Mono-Fc VHH (Fc fusion, not shown: a dimerising Fc or GST)
chain: QVQLQESGGGSVQAGGSLRLSCVASGYTFSSYCMGWFRQAPGKEREGVAALGGGSTYYADSVKGRFTISQDNAKNTLYLQMNSLKPEDTAMYYCAAAWVACLEFGGSWYDLARYKHWGQGTQVTVSS
B7: hIL-2Rg_VHH19 Mono-Fc VHH (Fc fusion, not shown: a dimerising Fc or GST)
chain: QVQLQESGGGSVQAGGSLRLSCTASGFTFDDREMNWYRQAPGNECELVSTISSDGSTYYADSVKGRFTISQDNAKNTVYLQMDSVKPEDTAVYYCAADFMIAIQAPGAGCWGQGTQVTVSS

The target of one experiment is T1, hIL2Rb ECD antigen (human, UniProt P14784 27-240).
T1 construct: The immunogen was the ECD fused to human IgG1 hinge and Fc; also called ECD of IL2Rb (human); human IL-2Rβ
T1 sequence: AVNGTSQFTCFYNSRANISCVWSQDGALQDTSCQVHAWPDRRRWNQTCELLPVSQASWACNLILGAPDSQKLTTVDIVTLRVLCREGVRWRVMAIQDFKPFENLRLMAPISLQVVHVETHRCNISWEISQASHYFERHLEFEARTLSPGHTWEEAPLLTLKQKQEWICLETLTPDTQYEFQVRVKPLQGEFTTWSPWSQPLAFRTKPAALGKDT
The experiment is described as follows: PE-ELISA of phage clones. On the technique in general: ELISA stands for enzyme-linked immunosorbent assay.
In the case of B1, the binding result is on record as “binds”.

For the next experiment, the target named is T2, hIL2Rg-his (Sino Biological, Catalog# 10555) (human, UniProt P31785 23-262).
T2 construct: Bought; also called extracellular domain of hIL2Rg
T2 sequence: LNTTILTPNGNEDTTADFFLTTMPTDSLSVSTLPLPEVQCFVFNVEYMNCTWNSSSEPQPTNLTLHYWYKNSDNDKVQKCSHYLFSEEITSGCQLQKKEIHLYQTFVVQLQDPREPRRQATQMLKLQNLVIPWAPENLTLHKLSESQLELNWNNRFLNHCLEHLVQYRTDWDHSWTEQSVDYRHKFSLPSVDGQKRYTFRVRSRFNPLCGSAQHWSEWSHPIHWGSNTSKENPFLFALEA
Nature of the experiment: SPR; ratio of experimental to calculated Rmax. From the text:
(§1) To confirm and evaluate binding affinities of the binding of the IL2Rg sdAbs, a representative example from each clonotype generated was selected for evaluation of binding via SPR. […] Buffer-subtracted sensograms were processed with Biacore T200 Evaluation Software and globally fit with a 1:1 Langmuir binding model (bulk shift set to zero) to extract kinetics and affinity constants (kₐ, kd, KD). RMAX<100 RU indicates surface density compatible with kinetics analysis. Calculated Rₘₐₓ values were generated using the equation: Rmax=Load (RU)×valency of ligand×(Molecular weight of analyte/Molecular weight of ligand). Surface activity was defined as the ratio of experimental/calculated Rmax.
Calculated Rmax were generated using the equation Rmax=Load (RU)×valency of ligand×(Molecular weight of analyte/Molecular weight of ligand. Surface activity was defined as the ratio experimental/calculated Rmax. See tables 16 and 17 below for sample information and experimental results.
As to B2, the “Surface Activity” value was 73%.
Same read-out and setting: next, B3: 108%.
Consider B4, for which the “Surface Activity” value is 6%.
On the same count and under the same terms, with B5 the figure was 48%; with B6, 110%; with B7, 33%.

The target of another experiment is T2, hIL2Rg-his (Sino Biological, Catalog# …). The experiment is described as follows: SPR Biacore T200; Mono-Fc VHH captured on Protein A chip, hIL2Rg-his analyte; 1:1 Langmuir fit.
Description: as §1
All experiments were conducted in 10 mM Hepes, 150 mM NaCl, 0.05% (v/v) Polysorbate 20 (PS20) and 3 mM EDTA (HBS-EP+ buffer) on a Biacore T200 instrument equipped with a Protein A chip (Cytiva). Mono-Fc VHH ligands were flowed at 5 μl/min for variable time ranging from 18 to 300 seconds, reaching the capture loads listed in the tables below.
Following ligand capture, injections of a 2-fold dilution series of his-tagged cytokine receptors typically comprising at least five concentrations between 1 μM and 1 nM were performed in either high performance or single cycle kinetics mode. Surface regeneration was achieved by flowing 10 mM glycine-HCl, pH 1.5 (60 seconds, 50 μL/min). Buffer-subtracted sensograms were processed with Biacore T200 Evaluation Software and globally fit with a 1:1 Langmuir binding model (bulk shift set to zero) to extract kinetics and affinity constants (kₐ, kd, KD). RMAX<100 RU indicates surface density compatible with kinetics analysis.
(In general: SPR reads the build-up and loss of mass on a sensor chip optically.)
The Kd is the constant that tells how readily two partners part at equilibrium. A lower Kd goes with higher affinity. Broadly, the koff is the first-order rate constant of dissociation. Lower therefore signals a long-lived complex. As a reminder, the kon is the second-order rate constant of association. A high value points to fast association. Molecule B2 displayed a Kd of 26 nM, an off-rate constant (koff) of 0.00251 s⁻¹ and an on-rate (kon) of 96800 M⁻¹ s⁻¹.
The corresponding values for B3 are 6.4 nM, 0.00354 s⁻¹ and 554000 M⁻¹ s⁻¹.
On the same counts, the results for B4 are 17.2 nM, 0.00113 s⁻¹ and 65600 M⁻¹ s⁻¹.
The corresponding values for B5 are 14.1 nM, 0.0027 s⁻¹ and 192000 M⁻¹ s⁻¹.
With B6, binding was put at a Kd of 2.2 nM, the dissociation rate constant (koff) turned out to be 0.000812 s⁻¹ and the on-rate (kon) came to 366000 M⁻¹ s⁻¹.
The corresponding values for B7 are 2.4 nM, 0.00693 s⁻¹ and 2.85e+06 M⁻¹ s⁻¹.

Values taken from patent publication US20250019453A1 (SYNTHEKINE, published 2025).
